This is an account of results in the nanobody polyreactivity screen of Harvey et al. (2022).

This data set can be described thus: yeast display, Sf9 membrane polyspecificity reagent, FACS + sequencing; frameworks hold sequencing errors. The essentials:
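Nanobodies came from a synthetic yeast display library in Saccharomyces cerevisiae BJ5465, induced with galactose for 36–48 hours and stained for 1 hour at 4 °C with 10% biotinylated, detergent-solubilized Sf9 membrane reagent. Cells were enriched on streptavidin microbeads and then FACS-sorted, with low and high (top ~1%) gates set on anti-HA fluorescence for expression and streptavidin fluorescence for reagent binding. Each polyreactivity label reflects the gate a clone came from. Genes were amplified by colony PCR, sequenced by MiSeq 2 × 250 and filtered by CDR length.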
Consider “QVQLVESGGGLVQAGGSLRLSCAASGSISVRNVMGWYRQAPGKERELVATIRRPGGSTSYADSVKGRFTISRDNAKNTVYLQMNSLKPEDTAVYYCAAVGYTTYRRYDYWGQGTQVTVSS”, for which the “polyreactivity (PSR sort gate)” value is recorded as “low polyreactivity”. The value for “QVQLVESGGGLVQAGGSLRLSCAASGRILHRYVMGWYIQAPGKERELVAAISSGGSTTYADSVKGRFTISRDNAKNTVYLQIYSLKPEDTAVYYCAKYSFWSTSRMDYWGQGTQVTVSS” was “low polyreactivity”; that for “QVQLVESGGALVQAGRSLRLSCAASGRTFWVYAMGWYRQAPGKERELVAAIRWSAGTTYYADSVKGRFTISRDNAKNTVYLQMNSLKPEDTAVYYCAKRRYTAISYGYWGQGTKVTVSS” was “high polyreactivity”. The entry for “QVQLVESVGGLVQAGGSLRLSCAASGRIFPYYAMGWYIQAPGKERELVATITWRGGITYYADSVKGRFTISRDNAKNTVYLQMNSLKPEDTSVYYCAVRKVYRSSFDYWGQGTQVTVSS” is “high polyreactivity”; for “QVQLVESGGGLVQAGGSLRLSCAASGRIFFDYAMGWYRQAPGKERELVADISYNGGSTNYADSVKGRFTISRDNAKNTVYLQMNSLKPEDTAVYYCNRAFVPVYDLDYYWGQGTQVTVSS” it is “low polyreactivity”. The value for “QVQLVESGGGLVQAGGSLRLSCAASGFTFPEYTMGWYRQAPGKERELVAAISWSGGSTYYADSVKGRFTISRDNAKNSVYLQMNSLKPEDTAVYYCNWKRGYGYWGQGTQVTVSS” was “high polyreactivity”; that for “QVQLVESGGGLVQAGGSLRLSCAASGNIFAYYAMGWYRQAPGKERELVAAITDSGGNTFYADSVKGRFTISRDNAKNTVYLQMNSLKPEDTAVYYCAADPDGWGFVYPRYDYWGQGTQVTVSS” was “low polyreactivity”; that for “QVQLVESRGGLVQAGGSLRLSCAASGFIFFQYAMGWYRQAPGTERELVAAISGSGVTTYYADSVKGRFTISRDNAKNTVYLQMNSLKPEDTAVYYCNAALRWKYDWGQGTQVTVSS” was “low polyreactivity”. For “QVQLVESGGGLVQAGGSLRLSCAASGSTFRYYTMGWYRQAPGKERELVAAISWSGGITYYADSVKGRFTISRDNAKNTVYLQMNSLKPEDTAVYYCAADWWAWRAYYYWGQGTQVTVSS”, the “polyreactivity (PSR sort gate)” value is “high polyreactivity”. The value for “QVQLQESGGGLVQAGGSLRRSCAASGSIFSHWAMGWYRQTPGKERELVASITAGGNTNYADSVKGRFTISRDNAKNTVYLPMDSLKPEDTAVYYCAADGYYGAWDLEYYYWGQGTQVTVSS” was “low polyreactivity”; that for “QVQLVESGGGLVQAGGSLRLSCAASGSTFNLYAMGWYRQAPGKERELVAAISGNGDRTYYADSVKGRFTISRDNAKNTVYLQMNSLKPEDTAVYYCAAKYYGWGQGTQVTVSS” was “high polyreactivity”; that for “QVQLVESGGGLVQAGGSLRLICAASGYTFSYYAMGWYRQAPGKERELVAAINYSGGRTYYADSVKGRFTISRDNAKNTVYLQMNSLKPDDTAVYYCAAYTRNGDYDYWGQGTQVTVSS” was “high polyreactivity”. Regarding “QVQLVESGGGLVQAGGSLRLSCAASGRIFRAYAMGWYRQAPGKERELVASITGSGGSTYYADSVKGRFTISRDNAKNTVYFQMNILKPEDTAVYYCAVASYRVWGVGTRYYYWGQGTHVTVSS”, the “polyreactivity (PSR sort gate)” value is “high polyreactivity”. Regarding “QVQLVESGGGLVQAGGSLRLSCAASGSTFDLYAMGWYRQATGKERELVAAISRSGGSTYYADSVKGRFTISRDNEKNTVYLQMNSLKPDDTAVYYCNARWPLGVSRGGMGYWGQGTQVTVSS”, the “polyreactivity (PSR sort gate)” value is given as “high polyreactivity”. The entry for “QVQLVESGGGLFQAGGSLRLSCAASGRIFVFYAMGWYRQAPGKEMELVAAISKSVGPTYYADSVKGRFTISRDYAKNTVYLQMNSLKPEDTAVYYCNKRSASDLWPQYGYWGQGTQVTVSS” is “low polyreactivity”; for “QVQLVESGGGLVQAGGSLRLSCAASGSTFNSYAMGWYRQAPGKERELVAAITSSVGSTYYADSVKGRFTISRDNAKYTVYLQMNSLKPEDTAVYYCAADYFSYWYFSGYDYWGQGTQVTVSS” it is “low polyreactivity”. In the case of “QVQLVESGGGLVQAGGSLRLSCAASGRIFVINAMGWYRQAPGKERELVAAISQSGGSTYYADSVKGRFTISRDNAKNTVYLQMNSLKPEDTAVYYCNALSNVPYDYWGQGTQVTVSS”, the “polyreactivity (PSR sort gate)” value is recorded as “low polyreactivity”.

In the case of “QVQLVESGGGLVQAGGSLRLSCAASGSTFRTNAMGWYRQAPGKERELVAGITSGTSTNYADSVKGRFTISRDNAKNTVYLQMNSLKPEDTAVYYCNTDRIWYGPEYDYWGQGTQVTVSS”, the “polyreactivity (PSR sort gate)” value is “low polyreactivity”. As to “QVQLVDSGGGLVQAGGSLRLSCAASGLIIWRNAMGWYRQAPGKERELVAAITYSGSRTYYADSVKGRFTISRDNAKNTVYLLMNSLKPEDTAVYYCNADYYWYPYEDDNWGQGTQVTVSS”, the “polyreactivity (PSR sort gate)” value is “low polyreactivity”. Regarding “QLQLVESAGGLVQAGGSLRLSCAASGIIFSYYAMGWYRKAPGKERELVAAISWSGGSTYYADSVKGRFTISRDNAKNTVYLQLNSLKPEDTAVYYCAADDYLAYEYWGQGTQVTVSS”, the “polyreactivity (PSR sort gate)” value is “high polyreactivity”. The value for “QVQLVESGGGFVQAGGSLRLSCAASGRICGYYAMGWFRQAPGKERELVAAISSSGGSTYYADSVKGRFTISRDTAKNTVYLQINSQKPEYTAVYYCNVDWYDNGYGGYDYWRQGTQVTVSS” was “low polyreactivity”; that for “QDQLVESGGGIVQAGGSLRLSCAASGSTFWHNVMGWYRQAPGKERELVAAISTAGSSTYYADSVKGRFTISRDHAKNTVYLQMNSLKPEDTAVYYCAAQWPKSKYGYWGQGTQVTVSS” was “high polyreactivity”; that for “QVQLVESGGGLVQAGGSLRLTCAASGGTIFPNAMGWYRQAPGKEMELVATITSSDTTNYADSVKGRFTISRDNAMNTVYLQMNSLKTEDTAVYYCDASFKLRYWDYYYWGQGTQVTVSS” was “low polyreactivity”. Take “QVQLVESGAGLVQAGGILRLSCAASGLTFSRYTMGWSRQAPGKERELVAAITSSGGSTYYADSVKGRFTISRDNAKNTVSLEMNSLKPEDTAVNYCAARYPGTRGDGYWGLGTQVTVSS”: the “polyreactivity (PSR sort gate)” value is reported as “high polyreactivity”. The value for “QVQHVESGGGLVQAGGSLLLSCAASGSTFARYAMGWYRQPPGKERELVAAISRSGSNTYYADSVKGRFTISRDNAKNTVYLQMNSLKPEDTAVYYCNRTHRQSFSKLDYWGQGTQVTVSS” was “high polyreactivity”; that for “QVQLVESGGGLVQAGGSLRLRCAASGFIFSYYAMGWYRQAPGKERELVAGISYNGNRTYYADSVEGRFTISRDNAKNTVYLQMNSLKPEDTAVYYCNVVCVLGGWYDLEYDYWGQGTQVTVSS” was “high polyreactivity”. Regarding “QVQLEESVGGLVQAGGSLRLSCAASGLTFRAYAMGWYRQAPGKERELVAAISSGGSTSYADSVKGRFTISRDNANITVYLQMNRLKPEDSAVYYCAADRARRGIRDYYWGQGTQVTVSS”, the “polyreactivity (PSR sort gate)” value is recorded as “high polyreactivity”. The value for “QVQLVESGGGLVQAGGSLRLSCAASGSTFLRNAMRWYRQAPGKERELVAAISRSGGSTYYADSVKGRFTSSRDNAKNTVYLQMNSLKPEDTAVYYCAAVVKYRYSAYGGDYCGQGTQVTVSS” was “high polyreactivity”.

As for “QLQLVESGGGLVQAGGSLRLSCAASGRTFSTYAMGWYRQAPGKEIELVAAISSGGGRTYYADSVKGRFTISRDNAKNTVYLQMNSLKQEDTAVYYCAADRYFRSRRSYEYWGQGTQVTVSS”, the “polyreactivity (PSR sort gate)” value is on record as “low polyreactivity”. As to “QVQLVESGGGLVQAGGSLRLSCAASGRIIPRNAMGWYRQAPGKEMELVAGISRGGSTYYADSVKGRFTISRDNAKNTVYLQMNSLKTEDTAVYYCAAAYQKSPITPKMDYWGQGTQVTVSS”, the “polyreactivity (PSR sort gate)” value was “low polyreactivity”. The value for “QVQLVESGGGLVQAGGSLRLSCAASGYIFYTYAMGWYRQAPGKERELVASIDSGGSTNYADSVKGRFTISRDNAKNTVYLQMNSLKPEDTAVYYCAADVIVRVYYYYYVLMDYWGQGTQVTVSS” was “low polyreactivity”; that for “QVQRVESGGGLVQAGGRLRLSFAASGFIFYAMGWYRQAPGKERELVAAITLSDGTTYYADSVKGRFTISRDNAKNTVYLQLNSLKPEDTAVYYCAAEYSVPYRGWDGYEYWGQGTQVTVSS” was “low polyreactivity”. The entry for “QVQLVESGGGLVQAGGSLRLSCAASGSIFRYYAMGWYRQAPGKERELVATISSSGGTTYYADSVKGRFTISRDNAKNTVYLQMNSLKPEDTAVYYCAALWTWHVSYPVHEYDYWGQGTQVTVSS” is “low polyreactivity”; for “QDQHVESAGGLVQAGGSLRLSCAATGFTFYYNPMRWYRQAPGKERELFASITRSGGPTYYADSVKGRFTISRDIAKHTVYLQMNSLKPEDTAVYYCARRYPGGYYWGHGTQVTVSS” it is “high polyreactivity”. The entry for “QVQLVESGGGLVQAGGSLRLSCAASGFIFRWNAMGWYRQSPGKERELVATISNGGSTYYADSVKGRFTISRDNAKNSVYLQMNSLKPEDTAVYYCAADYWYFSISITDYDYWGQGTQVTVSS” is “high polyreactivity”; for “QVQLVDSGGGLVQAGGSLRLSCAAYGLTFTYYDMGWYRQAPGNERELVATFSWSDSSTYADSVKGRFTISRDNAKNTVYLQMNSLKPEDTAVYYCNKVSYYTYDVDYWGQRTQVTVSS” it is “low polyreactivity”; for “QVHLVESGGGLVQAGGSHRLSCAASGFIFKVNAMGWYRQAPGKERELVAAITGSGGSTYYADSVKGRFTISRDNAKNTVFLQMISLKPEDTAVYYCISLYDGYSTRLGFWGHGTQVTVSS” it is “high polyreactivity”. For “QVQLVESGGGLVQAGGSLRLSCAASGSTFWYYAMGWYRQAPGKERELVAAITRGASTNYADSVKGRFTISRDNAKNTVYLQMNSLKPEDTAVYYSAAGPARWKGYYWGQGTQVTVSS”, the “polyreactivity (PSR sort gate)” value is recorded as “high polyreactivity”.

For “QVQLVESGGGLVQAGGSLRLSCAASGSTFGYYAMGWYRQAPGKERELVAAISRGDSTNYADSVKGRFTISRDNAKNTVYLQMNSLKPEDTAVYYCAADQLNVCREYVEYDYWGQGTQVTVAS”, the “polyreactivity (PSR sort gate)” value is reported as “low polyreactivity”. The entry for “QVQLVESGGGLVQAGGSLPLSCAASGFIFYRYTMGWYRQAPGKERELVAAITRNGVSTYYADSVKGRFTISRDNAKNTVYLQMNSLKPEDTAVYYCAAQRYRTGDSWGQGTQVTVSS” is “high polyreactivity”. The entry for “QVQLVDSGGGLVQAGGSLRLRSAASGFTFCTYDMGWYRQAPGKERELVAAIDSGGSTYYADSVKGRFTISRDNAKNNVYLQMNSLKPEDTAVYYCNKVVDYFWYVEYDYWGQVTQVTVSS” is “low polyreactivity”.
